Like-named read-outs stand apart in the source and are kept apart here.
Assays:
[1] = target: ECGF receptor (Mr 150,000 polypeptide) on LEII cells (mouse (endogenous in LEII cells)) (UniProt P16092); experiment: radioligand binding
[2] = target: ECGF receptor (Mr 150,000 polypeptide) on LEII cells (mouse (endogenous in LEII cells)) (UniProt P16092); experiment: radioligand binding; remark: listed apart in the source

UniProt P16092, sequence (P16092 22-822): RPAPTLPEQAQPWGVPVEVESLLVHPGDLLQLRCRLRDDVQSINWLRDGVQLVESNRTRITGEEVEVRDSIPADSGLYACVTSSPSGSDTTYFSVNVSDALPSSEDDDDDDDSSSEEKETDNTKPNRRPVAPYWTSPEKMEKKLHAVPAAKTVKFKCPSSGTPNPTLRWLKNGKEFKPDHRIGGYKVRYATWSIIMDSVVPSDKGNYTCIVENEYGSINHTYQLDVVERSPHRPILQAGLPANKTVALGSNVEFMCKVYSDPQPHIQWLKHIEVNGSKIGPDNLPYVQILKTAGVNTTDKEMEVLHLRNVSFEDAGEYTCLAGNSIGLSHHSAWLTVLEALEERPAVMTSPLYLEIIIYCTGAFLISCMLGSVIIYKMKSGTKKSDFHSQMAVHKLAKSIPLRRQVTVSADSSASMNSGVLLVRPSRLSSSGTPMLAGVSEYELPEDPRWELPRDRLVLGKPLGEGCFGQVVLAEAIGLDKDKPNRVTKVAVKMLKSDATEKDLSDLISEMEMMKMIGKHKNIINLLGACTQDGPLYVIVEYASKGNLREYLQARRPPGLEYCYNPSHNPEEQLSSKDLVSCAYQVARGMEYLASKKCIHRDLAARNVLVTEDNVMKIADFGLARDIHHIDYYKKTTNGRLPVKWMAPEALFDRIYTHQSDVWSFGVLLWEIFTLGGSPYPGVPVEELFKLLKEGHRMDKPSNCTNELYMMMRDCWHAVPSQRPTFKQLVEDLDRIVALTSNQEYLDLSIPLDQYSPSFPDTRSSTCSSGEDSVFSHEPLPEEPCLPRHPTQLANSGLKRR

Substance: alpha-endothelial cell growth factor (ligand)
- Kd [1]: 0.25 nM
- Kd [2]: 0.2 nM
